Data from the supplement of paper PMC10567573.

B1: CD207 (parent)
chain: MTVEKEAPDAHFTVDKQNISLWPR

Variants of: B1
Assay: protein stability index of a GFP-peptide fusion (GPS, HEK-293T) (PSI 1-6); higher = more stable
Details: c terminus: a fixed tail appended
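Further: lentivirally expressed fusions sorted by FACS into six bins by GFP to DsRed ratio, PSI derived from sequencing read proportions per bin multiplied by bin number.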

| Variant | protein stability index |
| --- | --- |
| MTAEKEAPDAHFTVDKQNISLWPR | 3.47 |
| MTTEKEAPDAHFTVDKQNISLWPR | 3.57 |
| MTSEKEAPDAHFTVDKQNISLWPR | 3.55 |
| MTHEKEAPDAHFTVDKQNISLWPR | 3.54 |
| MTREKEAPDAHFTVDKQNISLWPR | 3.9 |
| MTIEKEAPDAHFTVDKQNISLWPR | 3.33 |
| MTGEKEAPDAHFTVDKQNISLWPR | 3.19 |
| MTDEKEAPDAHFTVDKQNISLWPR | 4.12 |
| MTLEKEAPDAHFTVDKQNISLWPR | 3.44 |
| MTYEKEAPDAHFTVDKQNISLWPR | 2.75 |
| MTPEKEAPDAHFTVDKQNISLWPR | 4.07 |
| MTEEKEAPDAHFTVDKQNISLWPR | 3.72 |
| MTNEKEAPDAHFTVDKQNISLWPR | 3.93 |
| MTCEKEAPDAHFTVDKQNISLWPR | 2.68 |
| MTFEKEAPDAHFTVDKQNISLWPR | 2.85 |
| MTMEKEAPDAHFTVDKQNISLWPR | 3.09 |
| MAVEKEAPDAHFTVDKQNISLWPR | 3.35 |
| MMVEKEAPDAHFTVDKQNISLWPR | 3.86 |
| MYVEKEAPDAHFTVDKQNISLWPR | 2.18 |
| MWVEKEAPDAHFTVDKQNISLWPR | 2.59 |
| MIVEKEAPDAHFTVDKQNISLWPR | 2.94 |
| MQVEKEAPDAHFTVDKQNISLWPR | 3.54 |
| MSVEKEAPDAHFTVDKQNISLWPR | 3.57 |
| MGVEKEAPDAHFTVDKQNISLWPR | 3.68 |

| Variant | protein stability index |
| --- | --- |
| MHVEKEAPDAHFTVDKQNISLWPR | 3.08 |
| MLVEKEAPDAHFTVDKQNISLWPR | 3.17 |
| MCVEKEAPDAHFTVDKQNISLWPR | 2.54 |
| MVVEKEAPDAHFTVDKQNISLWPR | 3.21 |
| MDVEKEAPDAHFTVDKQNISLWPR | 3.62 |
| MRVEKEAPDAHFTVDKQNISLWPR | 2.83 |
| MKVEKEAPDAHFTVDKQNISLWPR | 3.65 |
| MNVEKEAPDAHFTVDKQNISLWPR | 3.36 |
| MFVEKEAPDAHFTVDKQNISLWPR | 2.71 |
| MTVEKEAPDRHFTVDKQNISLWPR | 2.48 |
| MTVEKEAPDVHFTVDKQNISLWPR | 2.91 |
| MTVEKEAPDQHFTVDKQNISLWPR | 3.46 |
| MTVEKEAPDYHFTVDKQNISLWPR | 3.3 |
| MTVEKEAPDGHFTVDKQNISLWPR | 3.75 |
| MTVEKEAPDDHFTVDKQNISLWPR | 3.56 |
| MTVEKEAPDKHFTVDKQNISLWPR | 3.09 |
| MTVEKEAPDTHFTVDKQNISLWPR | 3.83 |
| MTVEKEAPDMHFTVDKQNISLWPR | 2.31 |
| MTVEKEAPDFHFTVDKQNISLWPR | 2.84 |
| MTVEKEAPDHHFTVDKQNISLWPR | 3.76 |
| MTVEKEAPDWHFTVDKQNISLWPR | 2.4 |
| MTVEKEAPDCHFTVDKQNISLWPR | 3.77 |
| MTVEKEAPDIHFTVDKQNISLWPR | 2.21 |
| MTVEKEAPDLHFTVDKQNISLWPR | 2.91 |

| Variant | protein stability index |
| --- | --- |
| MTVEKEAPDPHFTVDKQNISLWPR | 3.01 |
| MTVEKEAPDEHFTVDKQNISLWPR | 4.07 |
| MTVEKEAPDNHFTVDKQNISLWPR | 3.23 |
| MTVEKEAPDSHFTVDKQNISLWPR | 3.5 |
| MTVEKEAHDAHFTVDKQNISLWPR | 4.79 |
| MTVEKEAYDAHFTVDKQNISLWPR | 2.6 |
| MTVEKEAMDAHFTVDKQNISLWPR | 3.17 |
| MTVEKEANDAHFTVDKQNISLWPR | 3.48 |
| MTVEKEADDAHFTVDKQNISLWPR | 3.67 |
| MTVEKEACDAHFTVDKQNISLWPR | 2.96 |
| MTVEKEAWDAHFTVDKQNISLWPR | 1.93 |
| MTVEKEAQDAHFTVDKQNISLWPR | 3.24 |
| MTVEKEAFDAHFTVDKQNISLWPR | 1.98 |
| MTVEKEASDAHFTVDKQNISLWPR | 3.65 |
| MTVEKEAVDAHFTVDKQNISLWPR | 2.86 |
| MTVEKEAGDAHFTVDKQNISLWPR | 3.02 |
| MTVEKEAEDAHFTVDKQNISLWPR | 4.39 |
| MTVEKEAADAHFTVDKQNISLWPR | 3.52 |
| MTVEKEAIDAHFTVDKQNISLWPR | 3.22 |
| MTVEKEAKDAHFTVDKQNISLWPR | 3.54 |
| MTVEKEARDAHFTVDKQNISLWPR | 3.71 |
| MTVEKEALDAHFTVDKQNISLWPR | 2.65 |
| MTVEKEATDAHFTVDKQNISLWPR | 3.17 |
| WTVEKEAPDAHFTVDKQNISLWPR | 3.13 |

| Variant | protein stability index |
| --- | --- |
| YTVEKEAPDAHFTVDKQNISLWPR | 2.37 |
| STVEKEAPDAHFTVDKQNISLWPR | 3.57 |
| TTVEKEAPDAHFTVDKQNISLWPR | 3.45 |
| VTVEKEAPDAHFTVDKQNISLWPR | 3.76 |
| MTVEKEFPDAHFTVDKQNISLWPR | 2.77 |
| MTVEKEEPDAHFTVDKQNISLWPR | 4.23 |
| MTVEKEIPDAHFTVDKQNISLWPR | 2.67 |
| MTVEKEWPDAHFTVDKQNISLWPR | 2.68 |
| MTVEKEMPDAHFTVDKQNISLWPR | 2.61 |
| MTVEKETPDAHFTVDKQNISLWPR | 3.31 |
| MTVEKERPDAHFTVDKQNISLWPR | 2.54 |
| MTVEKECPDAHFTVDKQNISLWPR | 3.31 |
| MTVEKESPDAHFTVDKQNISLWPR | 3.71 |
| MTVEKEKPDAHFTVDKQNISLWPR | 3.11 |
| MTVEKENPDAHFTVDKQNISLWPR | 4.01 |
| MTVEKEDPDAHFTVDKQNISLWPR | 3.79 |
| MTVEKEQPDAHFTVDKQNISLWPR | 3.97 |
| MTVEKEPPDAHFTVDKQNISLWPR | 3.54 |
| MTVEKEYPDAHFTVDKQNISLWPR | 2.93 |
| MTVEKEHPDAHFTVDKQNISLWPR | 3.32 |
| MTVEKEVPDAHFTVDKQNISLWPR | 3.51 |
| MTVEKELPDAHFTVDKQNISLWPR | 2.96 |
